Like-named read-outs stand apart in the source and are kept apart here. Positions of bridges follow the written chain, without caps; N, C: chain ends. Residues, ends and D or L forms follow the SMILES beside them. *: point of attachment. DOTA = O=C(O)CN1CCN(CC(=O)O)CCN(CC(=O)*)CCN(CC(=O)O)CC1
What was measured:
[1] = 37°C, determined at 0, 30, 60, 90 min, value holds for 90 min, radioactive TLC
Experimental: We used four kinds of solutions to observe the stability of the probes, namely, raw solution, normal saline, fresh mouse serum, and human serum. The specific methods were as follows: the probe and each solution were mixed according to a volume ratio of 1:100, and the original solution was kept as a control. The radiochemical purity of the solution was determined at 0, 30, 60, and 90 min. A curve was drawn to observe the stability of the probe in vitro and to speculate whether the probe would be removed from the standard in vivo.
Four kinds of solutions were used to observe the stability of the probe, namely, raw solution, normal saline, fresh mouse serum, and human serum. The probe was mixed with each solution at a volume ratio of 1:100, and the original solution was retained as a control. The radiochemical purity of the solution was determined after incubation for 0, 30, 60, and 90 min at 37°C.

BGC-823 tumors = experiment: Biodistribution in tumor-bearing nude mice; format: in vivo, nude BALB/c mice
Experimental: All of the experiments were performed according to a protocol approved by the Fourth Military Medical University (FMMU) Animal Care and Use Committee. A total of 0.2 ml of cell suspension (BGC823, 2 × 10^6 cells) was implanted by subcutaneous injection into the right upper limb of athymic female nude BALB/c mice (age, 4–6 weeks; weight, 15–20 g). When the diameter of the tumor reached approximately 8 mm, it could be used for imaging. […] For the biodistribution of the probes, 3.7 × 10^6 Bq of probe was injected intravenously. […] The percentage of injected dose per gram (%ID/g) was calculated. […] The %ID/g was calculated as described previously.

## NCCCC[C@H](NC(=O)[C@H](CCC(=O)O)NC(=O)[C@H](CCCCN)NC(=O)[C@@H]1CSSC[C@H](NC(=O)CN2CCN(CC(=O)O)CCN(CC(=O)O)CCN(CC(=O)O)CC2)C(=O)NCC(=O)N[C@@H](CC(N)=O)C(=O)N[C@@H](CO)C(=O)N[C@@H](CC(N)=O)C(=O)N2CCC[C@H]2C(=O)N[C@@H](CCCCN)C(=O)N[C@@H](CO)C(=O)N1)C(=O)N[C@H]1CSSC[C@@H](C(=O)O)NC(=O)[C@H](CO)NC(=O)[C@H](CCCCN)NC(=O)[C@@H]2CCCN2C(=O)[C@H](CC(N)=O)NC(=O)[C@H](CO)NC(=O)[C@H](CC(N)=O)NC(=O)CNC1=O [^68Ga-DOTA-KEK-(GX1)2, metal not drawn] ({DOTA}-CGNSNPKSCKEKCGNSNPKSC-OH; disulfide 1-9, 13-21)
[1]; fresh mouse serum, probe:solution 1:100 v/v
  labeling rate (radiochemical purity) remaining: above 95%
[1]; human serum, probe:solution 1:100 v/v
  labeling rate (radiochemical purity) remaining: above 95%
[1]; normal saline, probe:solution 1:100 v/v
  labeling rate (radiochemical purity) remaining: above 95%
[1]; raw (original) solution kept as control
  labeling rate (radiochemical purity) remaining: above 95%
BGC-823 tumors; 3.7 × 10^6 Bq i.v., 30, 60, 90 min, while kidney and liver radioactivity reduced rapidly
  radiation of the tumor over time: decreased relatively slowly
BGC-823 tumors; 3.7 × 10^6 Bq i.v., 60 min, except for the liver and kidney
  %ID/g of the tumor compared with organs: higher than that of other normal organs
BGC-823 tumors; 3.7 × 10^6 Bq i.v., 60 min postinjection
  uptake by tumors compared between probes (%ID/g): much higher than that of ^68Ga-DOTA-GX1
BGC-823 tumors; tumor/nontumor ratios, 30, 60, 90 min after injection
  T/NT ratios: increased over time

From PMC8514943, “^68Ga-Labeled GX1 Dimer: A Novel Probe for PET/Cerenkov Imaging Targeting Gastric Cancer” (Frontiers in Oncology, 2021)
